Like-named read-outs stand apart in the source and are kept apart here.

Broadly, the EC90 is the concentration needed for an effect of 90%.

Format in all cases: cell-based
For assay [1], the system named is Jurkat cells. The assay is described as follows: Sirolimus (rapamycin) dose response of FKBP13 constructs stably transduced into Jurkat cells, flow cytometry. Conditions: for Fold Change: rapamycin (sirolimus), Jurkat cells stably transduced, Table 8; for EC50 (tacrolimus)/ EC50 (rapamycin): ratio of Table 7 and Table 8 EC50 values; for EC50 (tacrolimus)/ EC50 (rapamycin) / Fold change (tacrolimus)/ Fold change (rapamycin): Jurkat cells; for Fold change (tacrolimus)/ Fold change (rapamycin): ratio of Table 7 and Table 8 fold changes; for EC90 / Rapamycin FC: rapamycin, Table 14; for Rapamycin FC: fold change. As to the method:
Normalized EC50 values were calculated from the mCherry normalized GFP MFI values, which accounted for any differences in mCherry intensity between samples.

Assay [2] concerns Jurkat cells. Nature of the assay: Tacrolimus dose response of FKBP13-AcGFP-mCherry constructs stably transduced into Jurkat cells, GFP MFI by flow cytometry. Set-up: Basal: unit not given here. Conditions: for Fold Change / EC90 / Tacrolimus FC: tacrolimus; for Fold Change: Jurkat cells stably transduced, Table 7; for Basal / FC / At 10 uM: FIG. 44; for EC90 / Tacrolimus FC: Table 14; for Tacrolimus FC: fold change. The gist of the method:
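Jurkat E6-1 cells lentivirally transduced with FKBP13-AcGFP-mCherry constructs to 10-25% mCherry+ (day 5) were dosed with tacrolimus. GFP geometric MFI in mCherry+ cells was measured by flow cytometry and fitted to dose-response curves.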
In general terms: Flow cytometry measures light scatter and fluorescence of single cells or particles in a stream.

A short description of assay [3]: Example 4: dose response of FKBP constructs 160-255, Ec50, Ec90 and fold change (raw and normalized to mCherry). Conditions: for FC (fold change): fold change during initial analysis. As to the method: Additional experiments were performed for constructs FKBP-160-292.
[4] abbreviates: normalized, read-out: Rapamycin EC90 (Norm).
[5] abbreviates: read-out: Tacrolimus EC90 (Norm), normalized.
[6] abbreviates: FKBP constructs 160-255, not normalized, read-out: EC90.
Where [7] appears, read: normalized to mCherry, read-out: EC90 (Norm).

B1: FKBP-154: FKBP13 DRD Q72R, S79W, Q84W, A117W, M54A; SEQ ID NO: 104 (protein)
chain: HCPIKSRKGDVLHAHYTGKLEDGTEFDSSLPRNQPFVFSLGTGEVIKGWDQGLLGMCEGEKRKLVIPSELGYGERGWPPKIPGGATLVFEVELLKIER
modifications: Description of sequence: FKBP13-AcGFP-mCherry Fusion; Construct Name: FKBP-154; FKBP13 DRD in Construct : FKBP13 (mutated to match FKBP12 active site Q72R S79W Q84W A117W) (DRD M54A)
With B1, in assay [1], the “Fold Change” value worked out at 3.9, the “EC50 (tacrolimus)/ EC50 (rapamycin)” value amounted to 0.35 and the “Fold change (tacrolimus)/ Fold change (rapamycin)” value (“Fold change … (rapamycin)” below) was found to be 3.59. The “Fold Change” value in assay [2] amounted to 14.

B2: FKBP-151: FKBP13 DRD Q72R, Q84R, A117W, M54A; SEQ ID NO: 101 (protein)
chain: HCPIKSRKGDVLHAHYTGKLEDGTEFDSSLPRNQPFVFSLGTGRVIKGWDQGLLGMCEGEKRKLVIPSELGYGERGWPPKIPGGATLVFEVELLKIER
modifications: Description of sequence: FKBP13-AcGFP-mCherry Fusion; Construct Name: FKBP-151; FKBP13 DRD in Construct : FKBP13 (mutated to match FKBP12 active site Q72R Q84R A117W) (DRD M54A)
In the case of B2, in assay [1], the “Fold Change” value stood at 10.15, the “EC50 (tacrolimus)/ EC50 (rapamycin)” value is reported as 0.91 and the “Fold change … (rapamycin)” value turned out to be 4.14. For the same molecule, the “Fold Change” value in assay [2] is recorded as 42.03.

B3: FKBP-167: FKBP13 DRD-AcGFP construct of Table 10 (protein)
chain: HCPIKSRKGDVLHAHYTGKLEDGTEFDSSLPRNQPFVFWLGTGRRIKGWDQGLLGMCEGEKRKLVIPSELGYGERGWPPKIPGGATLVFEVELLKIER
modifications: Description of sequence: Construct Name: FKBP-167; Mutation(s): Q72R S79W Q84R A117W DRD M54A V85R
Turning to B3, the 90% effect concentration (EC90) stood at 1720 nM in assay [1] (read-out: Rapamycin EC90); 1710 nM in assay [1] (setting [4]); 334 nM in assay [2] (setting [5]); 348 nM in assay [2] (read-out: Tacrolimus EC90); 348 nM in assay [3] (setting [6]); 334 nM in assay [3] (setting [7]). The “Rapamycin FC” value in assay [1] is given as 11.3. This molecule registered a Basal in assay [2] of 96. For the same molecule, the FC in assay [2] is on record as 47.22. Besides, the “At 10 uM” value in assay [2] is listed as 4533. The “Tacrolimus FC” value in assay [2] is on record as 46.8. Besides, the “FC (fold change)” value in assay [3] was 46.8.

B4: FKBP-158: FKBP13 DRD Q72R, Q84E, A117W, M54A G111E; SEQ ID NO: 108 (protein)
chain: HCPIKSRKGDVLHAHYTGKLEDGTEFDSSLPRNQPFVFSLGTGEVIKGWDQGLLGMCEGEKRKLVIPSELEYGERGWPPKIPGGATLVFEVELLKIER
modifications: Description of sequence: FKBP13-AcGFP-mCherry Fusion; Construct Name: FKBP-158; FKBP13 DRD in Construct : FKBP13 (mutated to match FKBP12 active site Q72R Q84E A117W) (DRD M54A G111E)
As for B4, the “Fold Change” value in assay [1] is reported as 0.84; in assay [2], 1.25. Moreover, the “Fold change … (rapamycin)” value in assay [1] was determined as 1.49.

B5: FKBP-152: FKBP13 DRD Q72R, Q84W, A117W, M54A; SEQ ID NO: 102 (protein)
chain: HCPIKSRKGDVLHAHYTGKLEDGTEFDSSLPRNQPFVFSLGTGWVIKGWDQGLLGMCEGEKRKLVIPSELGYGERGWPPKIPGGATLVFEVELLKIER
modifications: Description of sequence: FKBP13-AcGFP-mCherry Fusion; Construct Name: FKBP-152; FKBP13 DRD in Construct : FKBP13 (mutated to match FKBP12 active site Q72R Q84W A117W) (DRD M54A)
As to B5, in assay [1], the “Fold Change” value came to 23.17, the “EC50 (tacrolimus)/ EC50 (rapamycin)” value worked out at 0.55 and the “Fold change … (rapamycin)” value worked out at 1.31. In addition, the “Fold Change” value in assay [2] is 30.34.

B6: FKBP-169 (protein)
chain: HCPIKSRKGDVLHAHYTGKLEDGTEFDSSLPRNQPFVFSLGWGEVIKGWDQGLLGMCEGEKRKLVIPSELGYGERGWPPKIPGGATLVFEVELLKIER
modifications: Description of sequence: Construct Name: FKBP-169; Mutation(s): Q72R T82W Q84E A117W DRD M54A
Consider B6, for which the 90% effect concentration (EC90) in assay [1] (read-out: Rapamycin EC90) came to 1390 nM; in assay [1] (setting [4]), 1420 nM; in assay [2] (setting [5]) it was 493 nM; in assay [2] (read-out: Tacrolimus EC90) it was 448 nM; in assay [3] (setting [6]), 448 nM; in assay [3] (setting [7]), 493 nM. Also, the “Rapamycin FC” value in assay [1] came to 10.8. Further, the “Tacrolimus FC” value in assay [2] stood at 50.1. In addition, the “FC (fold change)” value in assay [3] is given as 50.1.

B7: FKBP-166 (protein)
chain: HCPIKSRKGDVLHAHYTGKLEDGTEFDSSLPRNQPFVFWLGTGERIKGWDQGLLGMCEGEKRKLVIPSELGYGERGWPPKIPGGATLVFEVELLKIER
modifications: Description of sequence: Construct Name: FKBP-166; Mutation(s): Q72R S79W Q84E A117W DRD M54A V85R
B7: the concentration for an effect of 90% (EC90) in assay [1] (read-out: Rapamycin EC90) stood at 1640 nM; in assay [1] (setting [4]), 1580 nM; in assay [2] (setting [5]), 223 nM; in assay [2] (read-out: Tacrolimus EC90), 220 nM; in assay [3] (setting [6]) it was 220 nM; in assay [3] (setting [7]), 223 nM. Moreover, in assay [1], the “Rapamycin FC” value amounted to 15.7. The “Tacrolimus FC” value in assay [2] was found to be 46. Besides, the “FC (fold change)” value in assay [3] worked out at 46.0.

B8: FKBP-170 (protein)
chain: HCPIKSRKGDVLHAHYTGKLEDGTEFDSSLPRNQPFVFSLGWGERIKGWDQGLLGMCEGEKRKLVIPSELGYGERGWPPKIPGGATLVFEVELLKIER
modifications: Description of sequence: Construct Name: FKBP-170; Mutation(s): Q72R T82W Q84E A117W DRD M54A V85R
For B8, the 90% effect concentration (EC90) is 785 nM in assay [1] (read-out: Rapamycin EC90); 818 nM in assay [1] (setting [4]); 138 nM in assay [2] (setting [5]); 133 nM in assay [2] (read-out: Tacrolimus EC90); 133 nM in assay [3] (setting [6]); 138 nM in assay [3] (setting [7]). Also, the “Rapamycin FC” value in assay [1] turned out to be 16.1. In addition, the “Tacrolimus FC” value in assay [2] is reported as 47.6. In addition, in assay [3], the “FC (fold change)” value was 47.6.

B9: FKBP-156: FKBP13 DRD Q72R, T82W, Q84W, A117W, M54A; SEQ ID NO: 106 (protein)
chain: HCPIKSRKGDVLHAHYTGKLEDGTEFDSSLPRNQPFVFSLGWGWVIKGWDQGLLGMCEGEKRKLVIPSELGYGERGWPPKIPGGATLVFEVELLKIER
modifications: Description of sequence: FKBP13-AcGFP-mCherry Fusion; Construct Name: FKBP-156; FKBP13 DRD in Construct : FKBP13 (mutated to match FKBP12 active site Q72R T82W Q84W A117W) (DRD M54A)
For the molecule B9, in assay [1], the “Fold Change” value came out at 8.77, the “EC50 (tacrolimus)/ EC50 (rapamycin)” value was 0.56 and the “Fold change … (rapamycin)” value was found to be 2.09. Also, the “Fold Change” value in assay [2] is recorded as 18.36.

B10: FKBP-168: FKBP13 DRD-AcGFP construct of Table 10 (protein)
chain: HCPIKSRKGDVLHAHYTGKLEDGTEFDSSLPRNQPFVFSLGWGRRIKGWDQGLLGMCEGEKRKLVIPSELGYGERGWPPKIPGGATLVFEVELLKIER
modifications: Description of sequence: Construct Name: FKBP-168; Mutation(s): Q72R T82W Q84R A117W DRD M54A V85R
Take B10: the 90% effect concentration (EC90) in assay [1] (read-out: Rapamycin EC90) worked out at 1380 nM; in assay [1] (setting [4]), 1330 nM; in assay [2] (setting [5]) it was 351 nM; in assay [2] (read-out: Tacrolimus EC90), 342 nM; in assay [3] (setting [6]), 342 nM; in assay [3] (setting [7]) it was 351 nM. In addition, in assay [1], the “Rapamycin FC” value is reported as 18. The same molecule returned a Basal in assay [2] of 72.7. This molecule gave an FC in assay [2] of 60.19. The “At 10 uM” value in assay [2] came to 4376. Besides, the “Tacrolimus FC” value in assay [2] stood at 60.2. In addition, the “FC (fold change)” value in assay [3] is given as 60.2.

B11: FKBP-159: FKBP13 DRD Q72R, Q84E, A117W, M54A G111Y; SEQ ID NO: 109 (protein)
chain: HCPIKSRKGDVLHAHYTGKLEDGTEFDSSLPRNQPFVFSLGTGEVIKGWDQGLLGMCEGEKRKLVIPSELYYGERGWPPKIPGGATLVFEVELLKIER
modifications: Description of sequence: FKBP13-AcGFP-mCherry Fusion; Construct Name: FKBP-159; FKBP13 DRD in Construct : FKBP13 (mutated to match FKBP12 active site Q72R Q84E A117W) (DRD M54A G111Y)
For B11, in assay [1], the “Fold Change” value amounted to 0.81, the “EC50 (tacrolimus)/ EC50 (rapamycin)” value came to 1.22 and the “Fold change … (rapamycin)” value is 1.31. In assay [2], the “Fold Change” value worked out at 1.06.

The values are drawn from patent US20250186614A1, “COMPACT DRUG RESPONSIVE DOMAINS FOR REGULATION OF FUNCTION/ABUNDANCE AND DELIVERY OF POLYPEPTIDE PAYLOADS” (OBSIDIAN THERAPEUTICS, INC., priority 2022, published 2025).
